Data set [1] is described as follows: Stability of Av3b mutants in insect gut extract. The conditions noted are these: H. zea gut extract digestion, room temperature. It counts as in vitro ADME, Helicoverpa zea. As to the method: To test the stability of the Av3b mutants in the gut enzymes of a lepidopteran pest, the gut extract were prepared from Helicoverpa zea (Corn Earworm or “CEW”). Corn Earworm insects were obtained commercially from Benzon Research (Carlisle, PA) as eggs. Hatched larvae were raised on artificial diet until ⅘^th instar (20 mm long) before guts were isolated. Before gut extraction, larvae were anesthetized using CO2. The larva was then pinned on the dissection plate at both the head and the tail. Using dissection scissors, the cuticle was nicked. The dissection scissors were then inserted into the nick and the […] along the insect. The cuticle was then carefully pulled back and pinned open to reveal the digestive track. Using DI water, the insect was thoroughly rinsed to remove hemolymph.
After the insect guts were extracted from the larva, they were spun at 15000 rpm for 5 minutes. The resulting supernatant is the “insect gut extract” that was used to determine peptide stability. Av3b mutant peptide was mixed with the gut extract to […] of 2 μg/μL, and incubated at room temperature. At time points between 0-100 hours, 6 μL of a given sample was mixed with 93 μL dH2O followed by the addition of 1 μL of a 2% trifluoracetic acid solution to stop the reaction. The sample was then analyzed by rpHPLC to determine the peptide loss during the gut extract treatment.

A short description of data set [2]: DASbox small-scale fermentation, degradation by HPLC and LC/MS. The conditions noted are these: DASbox fed batch fermentation runs. The data set is classed as physicochemical. As to the method: DASbox® is a parallel bioreactor system (Eppendorf, 175 Freshwater Blvd, Enfield, CT 06082, USA). The DASbox system used here contains 8 fermentation vessels with 250 mL volume capacity, allowing 8 small scale fermentation runs simultaneously. The DASbox fermentation runs were performed according to the manufacturer's instructions, and using the fermentation conditions described herein.
The screening of the Av3b mutants was conducted using a fed batch process in aerobic bioreactor. Reactors were initially filled to ˜45% capacity with a rich culture media containing 5-20 g/L of a carbon source such as glucose, sorbitol, or lactose, 5-20 g/L phosphoric acid, 0.1-1.5 g/L Calcium sulfate, 5-15 g/L Potassium sulfate, 0.5-10 g/L Magnesium sulfate heptahydrate, 1-5 g/L potassium hydroxide, and 10-60 g/L of corn steep liquor. The temperature of the reactor was maintained between 25-35° C. for the duration of the fermentation. The pH was held constant between 4-5.5 with the addition of 15% ammonium hydroxide. Dissolved oxygen was held constant by sparging air between 0.5-1.5 volume/volume/min and by increasing agitation to maintain a set point of 10-30%.
Inoculation of the reactor was from an overnight seed culture containing 5-40 g/L of a carbon source such as glucose, sorbitol, or lactose, and 5-40 g/L of corn steep liquor. Inoculation percentage ranged from 5-20% of initial fill volume. Once inoculated, the reactor was fed with a 70% solution of the selected carbon source until the reactor was filled and/or desired supernatant peptide concentration was achieved, approximately 96-140 hours and 0.8-1.2 g/L, respectively.

The nature of data set [3]: Thermo-stability at 54° C. in pH 4.0 solution. The data set is classed as physicochemical. As to the method: A thermo-stability study was performed for Av3b, Av3bM24, Av3bM165, Av3bM103, and Av3bM170 in a pH 4.0 solution at 54° C. for 0, 3, 7, 10, 12, and 14 days, with a caffeine internal control to cancel variation from evaporation. Samples of 1 mL were prepared in 1.5 mL microtube with sodium acetate buffer (NaOAc) at pH 4.0, containing 0.1 μg/μL of peptide, and 0.025 μg/μL of caffeine. The samples were incubated at 54° C. in a dry mixer. At 0, 3, 7, 10, 12, and 14 days, 20 μL of each sample was analyzed via analytic rpHPLC system to evaluate peptide loss. Each sample contained a fixed amount caffeine, which was used to compensate the peptide HPLC UV absorbance peak change due to volume change by evaporation. FIG. 68.

The subject of the next data set is Spodoptera frugiperda. Description: Lepidoptera injection assay, fall armyworm (FAW). The data set is classed as in vivo. The conditions noted are these: third instar larva, 2 μL injection, scored at 24-hours post-injection. On the procedure:
An injection assay was performed on Helicoverpa zea (corn earworm or “CEW”) and Spodoptera frugiperda (fall armyworm or “FAW”). Injections comprised a given Av3b mutant peptide combined with water to arrive at the planned dose. The Av3b mutants included Av3bM24; Av3bM165; Av3bM103; and Av3bM170. Av3b was used as a control.
Insects were reared on an artificial diet prepared from General Purpose Lepidoptera diet (Frontier Scientific, Newark, DE 19713, product No. F9772) according to the manufacturer's instructions. To perform the insect injection bioassay, 5 mL of hot diet was dispensed into the well of a rearing tray (Bio-Service Inc., Bio-RT-32), with 8 wells per injection treatment. The hot diet was then allowed to cool and solidify. Next, third instar larva were incubated on ice in order to immobilize them. Injections were prepared on a hand-microapplicator with injection solution (>100 μL) in 1-cc all-glass syringe having a 30 gauge straight needle. Air bubbles were removed from the syringe, and the syringe was set it up on the microapplicator. Injection volume was adjusted in the microapplicator at 2 μL.
To inject the larva, the insects were picked up and positioned close to the injection needle. The needle was allowed to penetrate the cuticle of the third pro-leg of the larva. The injection knob of the microapplicator was then rotated to inject a 2 μL solution into hemolymph from the third pro-leg. After injection the larva maintained on the needle for a few seconds to make sure the injected solution was absorbed. Then, the larva were gently removed from the needle and placed into the wells of prepared tray, along with 5 mL of solidified diet per well. Finally, the tray was sealed with vent covers.
Injected larva were incubated at 28° C. in an insect incubator, and scored at 24-hours post-injection based on their condition. Insect conditions were categorized as follows: alive (walking, eating, normal behavior); affected (showing toxic symptoms, such as tremors, writhing, unbalanced gait, or a combination thereof), knockdown (paralyzed albeit able to move with gentle poke); and dead (unmoving, discoloration, or a combination thereof).

Ends that are not written are not given here.

The results in this text go back to patent US20250188136A1, “AV3 MUTANT POLYPEPTIDES FOR PEST CONTROL” (Vestaron Corporation, priority 2021, published 2025).

In the case of “KSCCPCYWGGCPWGQNCYPEGCDGPK (ends and bridges not checked; cysteine pairing not given here) [Av3bM24]”, the “resistance to degradation in gut extract” value in data set [1] was “most resistant to degradation”. In addition, the “degradation detected via HPLC and LC/MS” value in data set [2] is recorded as “degradation was detected”. In addition, in data set [3] (pH 4.0, 54° C., HPLC peak area, + mass increase, − mass loss), the “peptide change on day 14” value is −29.5%. Further, in data set [3] (pH 4.0 solution, up to 14 days), the “thermo-stability at 54° C.” value is reported as “not thermo-stable”. The “KD50 FAW” value in the data set on Spodoptera frugiperda is 949 pmol/g.
